Legend:
Assay in all cases: cell-based or functional assay
[1] = target: HIV-1 JR-CSF Env E466A (HIV-1 (isolate JR-CSF)) (UniProt P20871)
[2] = target: HIV-1 envelope glycoprotein (Env) of isolate 93WR029, subtype A (HIV-1)
[3] = target: HIV-1 envelope glycoprotein (Env) of isolate 94 KE 105, subtype AC (HIV-1)
[4] = target: HIV-1 envelope glycoprotein (Env) of isolate MG RM-A-007, subtype A (HIV-1)
[5] = target: HIV-1 Env of isolate MGRM-AG-002 (pseudovirus) (HIV-1)
[6] = target: HIV-1 envelope glycoprotein (Env) of isolate MG RM-A-011, subtype A (HIV-1)
[7] = target: HIV-1 Env of isolate MGRM-AG-005 (pseudovirus) (HIV-1)
[8] = target: HIV-1 envelope glycoprotein (Env) of isolate MGRM-Chronic-B-001, on pseudovirus (HIV-1)
[9] = target: HIV-1 envelope glycoprotein (Env) of isolate MGRM-Chronic-B-012, on pseudovirus (HIV-1)
[10] = target: HIV-1 CMU02 Env (pseudovirus) (HIV-1)
[11] = target: HIV-1 JR-CSF Env I423A (I4234 in the source) (HIV-1 (isolate JR-CSF)) (UniProt P20871)
[12] = target: HIV-1 Env of isolate MGRM-AG-012 (pseudovirus) (HIV-1)
[13] = target: HIV-1 MGRM-AG-003 Env (pseudovirus) (HIV-1)
[14] = target: HIV-1 Env of pseudovirus MGRM-G-025 (HIV-1)
[15] = target: HIV-1 MGRM-AG-001 Env (pseudovirus) (HIV-1)
[16] = target: HIV-1 Env of isolate MGRM-A-004 (clade A pseudovirus) (HIV-1)
[17] = target: HIV-1 Env of isolate MGRM-D-011 (clade D pseudovirus) (HIV-1)
[18] = target: HIV-1 Env of pseudovirus MGRM-F1-018 (clade F) (HIV-1)
[19] = target: HIV-1 Env of isolate MGRM-D-012 (clade D pseudovirus) (HIV-1)
[20] = target: HIV-1 Env of isolate MGRM-A-013 (clade A pseudovirus) (HIV-1)
[21] = target: HIV-1 93IN905 envelope (Env) on pseudovirus (HIV-1)
[22] = target: HIV-1 Env of isolate 93TH305, clade B (HIV-1)
[23] = target: HIV-1 Env of isolate 92RW009 (clade A pseudovirus) (HIV-1)
[24] = target: HIV-1 Env of isolate 93UG077 (clade A pseudovirus) (HIV-1)
[25] = target: HIV-1 Env of isolate MGRM-D-024 (clade D pseudovirus) (HIV-1)
[26] = target: HIV-1 92TH021 envelope (Env) on pseudovirus (HIV-1)
[27] = target: HIV-1 Env of isolate MGRM-A-011 (subtype A) (HIV-1)
[28] = target: HIV-1 Env of isolate MGRM-F1-004 (HIV-1)
[29] = target: HIV-1 Env of isolate MGRM-D-002 (pseudovirus) (HIV-1)
[30] = target: HIV-1 Env of isolate MGRM-D-003 (pseudovirus) (HIV-1)
[31] = target: HIV-1 Env of isolate MGRM-AE-005 (subtype AE) (HIV-1)
[32] = target: HIV-1 Env of pseudovirus isolate MGRM-C-007 (clade C) (HIV-1)
[33] = target: HIV-1 Env of isolate MGRM-A-010 (subtype A) (HIV-1)
[34] = target: HIV-1 Env of isolate MGRM-D-011 (pseudovirus) (HIV-1)
[35] = target: HIV-1 Env of isolate 92UG001 (pseudovirus) (HIV-1)

Sequence of 5345_I01 (PGT-137) (antibody) (VH): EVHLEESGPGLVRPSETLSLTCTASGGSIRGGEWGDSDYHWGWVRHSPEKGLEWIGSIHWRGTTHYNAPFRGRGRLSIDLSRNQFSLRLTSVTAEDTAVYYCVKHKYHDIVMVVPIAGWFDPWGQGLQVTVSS
Sequence of 5345_I01 (PGT-137) (antibody) (VL): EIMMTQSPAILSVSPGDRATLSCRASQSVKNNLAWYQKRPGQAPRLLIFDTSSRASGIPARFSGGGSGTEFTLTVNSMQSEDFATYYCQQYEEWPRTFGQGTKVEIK

Substance	IC50, pseudovirus neutralization [2] [µg/mL]	IC50, pseudovirus neutralization [3] [µg/mL]	IC50, pseudovirus neutralization [4] [µg/mL]	IC50 (µg/mL), pseudovirus neutralization [5] [µg/mL]	IC50, pseudovirus neutralization [6] [µg/mL]	IC50 (µg/mL), pseudovirus neutralization [7] [µg/mL]	IC50, pseudovirus neutralization [8] [µg/mL]	IC50, pseudovirus neutralization [9] [µg/mL]	IC50 (µg/mL), pseudovirus neutralization [12] [µg/mL]	IC50 (µg/ml), pseudovirus neutralization [13] [µg/mL]	IC50 (µg/ml), pseudovirus neutralization [14] [µg/mL]	IC50 (µg/ml), pseudovirus neutralization [15] [µg/mL]	IC50 (µg/ml), pseudovirus neutralization [16] [µg/mL]	IC50, pseudovirus neutralization [17] [µg/mL]	IC50 [18] [µg/mL]	IC50, pseudovirus neutralization [19] [µg/mL]	IC50 (µg/ml), pseudovirus neutralization [20] [µg/mL]	neutralization IC50 [21] [µg/mL]	IC50 (µg/ml), pseudovirus neutralization [22] [µg/mL]	IC50 (µg/ml), pseudovirus neutralization [23] [µg/mL]	other results
5123_A06 (PGT-125) (antibody)	> 50	0.004	> 50	> 50	> 50	> 50	> 50	0.036	> 50												Fold IC50 increase relative to wild-type (pseudovirus neutralization) [1]: 1.6 fold; Neutralization by PGT-125, IC50 [10]: > 10 µg/mL; Neutralization by PGT-125, IC80 [10]: > 10 µg/mL; Neutralization by PGT-125, IC90 [10]: > 10 µg/mL; Neutralization by PGT-125, IC95 [10]: > 10 µg/mL; Fold IC50 increase relative to wild-type (pseudovirus neutralization) [11]: 5 fold
2F5 (antibody)										0.14	> 50	0.75	7.49	> 50	3.91	1.7	0.66	> 50	7.61	39.1	IC50 (µg/ml), pseudovirus neutralization [24]: 3.3 µg/mL; IC50 (µg/ml), pseudovirus neutralization [10]: 0.6 µg/mL; IC50, pseudovirus neutralization [25]: > 50 µg/mL; neutralization IC50 [26]: 1.51 µg/mL
5345_I01 (PGT-137) (antibody)																					IC50, pseudovirus neutralization [27]: > 50 µg/mL; IC50 (µg/mL), pseudovirus neutralization [28]: 40.3 µg/mL; IC50 (µg/mL), pseudovirus neutralization [29]: > 50 µg/mL; IC50 (µg/mL), pseudovirus neutralization [30]: > 50 µg/mL; IC50, pseudovirus neutralization [31]: > 50 µg/mL; IC50, pseudovirus neutralization [32]: > 50 µg/mL; IC50, pseudovirus neutralization [33]: > 50 µg/mL; IC50 (µg/mL), pseudovirus neutralization [34]: 6.3 µg/mL; IC50 (µg/mL), pseudovirus neutralization [35]: > 50 µg/mL
2G12 (antibody)										> 50	31.9	0.69	> 50	1.5	> 50	> 50	> 50	> 50	0.55	26.1	IC50 (µg/ml), pseudovirus neutralization [24]: > 50 µg/mL; IC50 (µg/ml), pseudovirus neutralization [10]: > 50 µg/mL; IC50, pseudovirus neutralization [25]: > 50 µg/mL; neutralization IC50 [26]: > 50 µg/mL
5141_B17 (PGT-126) (antibody)	> 50	0.006	> 50	> 50	> 50	1.21	> 50	0.027	> 50												Fold IC50 increase relative to wild-type (pseudovirus neutralization) [1]: 1.4 fold; Fold IC50 increase relative to wild-type (pseudovirus neutralization) [11]: 1.1 fold
4877_D15 (PGT-122) (antibody)	> 50	0.056	> 50	> 50	> 50	33.9	0.138	0.066	> 50												
1495_C14 (PGC14) (antibody)										> 50	> 50	> 50	> 50	> 50	> 50	> 50	> 50	> 50	6	> 50	IC50 (µg/ml), pseudovirus neutralization [24]: > 50 µg/mL; IC50 (µg/ml), pseudovirus neutralization [10]: > 50 µg/mL; IC50, pseudovirus neutralization [25]: > 50 µg/mL; neutralization IC50 [26]: > 50 µg/mL
